In patent US20240376163:

T1: GST-tagged VIVIT PPTP
T1 chain: PVIVITPPTP

T2: GST-tagged VIVIT peptide (VIVIT 10-mer)
T2 chain: PVIVITGPHE

T3: GST-tagged CABIN1-L-1-2
T3 chain: PEITVTPPTP

B1: JNK1 (activated recombinant kinase) (protein)
chain: MSRSKRDNNFYSVEIGDSTFTVLKRYQNLKPIGSGAQGIVCAAYDAILERNVAIKKLSRPFQNQTHAKRAYRELVLMKCVNHKNIIGLLNVFTPQKSLEEFQDVYIVMELMDANLCQVIQMELDHERMSYLLYQMLCGIKHLHSAGIIHRDLKPSNIVVKSDCTLKILDFGLARTAGTSFMMTPYVVTRYYRAPEVILGMGYKENVDLWSVGCIMGEMVCHKILFPGRDYIDQWNKVIEQLGTPCPEFMKKLQPTVRTYVENRPKYAGYSFEKLFPDVLFPADSEHNKLKASQARDLLSKMLVIDASKRISVDEALQHPYINVWYDPSEAEAPPPKIPDKQLDEREHTIEEWKELIYKEVMDLEERTKNGVIRGQPSPLAQVQQ
B2: MKK4 (activated recombinant kinase) (protein)
chain: MAAPSPSGGGGSGGGSGSGTPGPVGSPAPGHPAVSSMQGKRKALKLNFANPPFKSTARFTLNPNPTGVQNPHIERLRTHSIESSGKLKISPEQHWDFTAEDLKDLGEIGRGAYGSVNKMVHKPSGQIMAVKRIRSTVDEKEQKQLLMDLDVVMRSSDCPYIVQFYGALFREGDCWICMELMSTSFDKFYKYVYSVLDDVIPEEILGKITLATVKALNHLKENLKIIHRDIKPSNILLDRSGNIKLCDFGISGQLVDSIAKTRDAGCRPYMAPERIDPSASRQGYDVRSDVWSLGITLYELATGRFPYPKWNSVFDQLTQVVKGDPPQLSNSEEREFSPSFINFVNLCLTKDESKRPKYKELLKHPFILMYEERAVEVACYVCKILDQMPATPSSPMYVD

Assays:
GST-tagged VIVIT PPTP = molecular target: T1, GST-tagged VIVIT PPTP
[1] = molecular target: T2, GST-tagged VIVIT peptide (VIVIT 10-mer)
GST-tagged CABIN1-L-1-2 = molecular target: T3, GST-tagged CABIN1-L-1-2

| Protein | in vitro kinase assay (32P incorporation) (GST-tagged VIVIT PPTP) | in vitro kinase assay (32P incorporation) [1] | in vitro kinase assay (32P incorporation) (GST-tagged CABIN1-L-1-2) |
| --- | --- | --- | --- |
| B1 | ERK2, JNK1, and p38a phosphorylate purified recombinant GST-tagged peptide containing PPTP sequence (CABIN1-L-1-2 and VIVIT PPTP), but not GST-tagged VIVIT peptide | but not GST-tagged VIVIT peptide | ERK2, JNK1, and p38a phosphorylate purified recombinant GST-tagged peptide containing PPTP sequence (CABIN1-L-1-2 and VIVIT PPTP), but not GST-tagged VIVIT peptide |
| B2 |  |  | the MAPK family (EKR, JNK, and p38) and MKK4 directly phosphorylate CABIN1 peptide |
